Laboratory results published in US20240261333A1, “NOVEL TARGETS FOR ENHANCING ANTI-TUMOR IMMUNITY” (THE BROAD INSTITUTE, INC., priority 2021, published 2024).

T1: B3GNT2 (Homo sapiens, UniProt Q9NY97)
T1 construct: The respective ORFs of candidate genes [CD274 (NM_014143), MCL1 (NM_021960), JUNB (NM_002229), and B3GNT2 (NM_006577)] were synthesized; expressed in transfected cells; host or cells: A375 melanoma cells (lentiviral ORF overexpression)
T1 sequence (Q9NY97 1-397): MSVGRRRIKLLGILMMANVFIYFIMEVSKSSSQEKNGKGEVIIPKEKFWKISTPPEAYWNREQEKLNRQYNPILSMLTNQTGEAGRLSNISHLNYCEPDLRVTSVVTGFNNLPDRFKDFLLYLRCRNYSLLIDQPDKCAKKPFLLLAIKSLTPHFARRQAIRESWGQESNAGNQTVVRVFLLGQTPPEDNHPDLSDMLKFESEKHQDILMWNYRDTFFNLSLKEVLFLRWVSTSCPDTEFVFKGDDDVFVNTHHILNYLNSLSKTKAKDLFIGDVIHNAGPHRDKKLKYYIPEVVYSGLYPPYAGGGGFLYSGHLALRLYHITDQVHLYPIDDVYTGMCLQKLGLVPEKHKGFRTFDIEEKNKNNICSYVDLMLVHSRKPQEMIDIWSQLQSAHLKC

B1: XPOT (protein)
chain: MDEQALLGLNPNADSDFRQRALAYFEQLKISPDAWQVCAEALAQRTYSDDHVKFFCFQVLEHQVKYKYSELTTVQQQLIRETLISWLQAQMLNPQPEKTFIRNKAAQVFALLFVTEYLTKWPKFFFDILSVVDLNPRGVDLYLRILMAIDSELVDRDVVHTSEEARRNTLIKDTMREQCIPNLVESWYQILQNYQFTNSEVTCQCLEVVGAYVSWIDLSLIANDRFINMLLGHMSIEVLREEACDCLFEVVNKGMDPVDKMKLVESLCQVLQSAGFFSIDQEEDVDFLARFSKLVNGMGQSLIVSWSKLIKNGDIKNAQEALQAIETKVALMLQLLIHEDDDISSNIIGFCYDYLHILKQLTVLSDQQKANVEAIMLAVMKKLTYDEEYNFENEGEDEAMFVEYRKQLKLLLDRLAQVSPELLLASVRRVFSSTLQNWQTTRFMEVEVAIRLLYMLAEALPVSHGAHFSGDVSKASALQDMMRTLVTSGVSSYQHTSVTLEFFETVVRYEKFFTVEPQHIPCVLMAFLDHRGLRHSSAKVRSRTAYLFSRFVKSLNKQMNPFIEDILNRIQDLLELSPPENGHQSLLSSDDQLFIYETAGVLIVNSEYPAERKQALMRNLLTPLMEKFKILLEKLMLAQDEERQASLADCLNHAVGFASRTSKAFSNKQTVKQCGCSEVYLDCLQTFLPALSCPLQKDILRSGVRTFLHRMIICLEEEVLPFIPSASEHMLKDCEAKDLQEFIPLINQITAKFKIQVSPFLQQMFMPLLHAIFEVLLRPAEENDQSAALEKQMLRRSYFAFLQTVTGSGMSEVIANQGAENVERVLVTVIQGAVEYPDPIAQKTCFIILSKLVELWGGKDGPVGFADFVYKHIVPACFLAPLKQTFDLADAQTVLALSECAVTLKTIHLKRGPECVQYLQQEYLPSLQVAPEIIQEFCQALQQPDAKVFKNYLKVFFQRAKP
B2: NAP1L1 (protein)
chain: ADIDNKEQSELDQDLDDVEEVEEEETGEETKLKARQLTVQMMQNPQILAALQERLDGLVETPTGYIESLPRVVKRRVNALKNLQVKCAQIEAKFYEEVHDLERKYAVLYQPLFDKRFEIINAIYEPTEEECEWKPDEEDEISEELKEKAKIEDEKKDEEKEDPKGIPEFWLTVFKNVDLLSDMVQEHDEPILKHLKDIKVKFSDAGQPMSFVLEFHFEPNEYFTNEVLTKTYRMRSEPDDSDPFSFDGPEIMGCTGCQIDWKKGKNVTLKTIKKKQKHKGRGTVRTVTKTVSNDSFFNFFAPPEVPESGDLDDDAEAILAADFEIGHFLRERIIPRSVLYFTGEAIEDDDDDYDEEGEEADEEGEEEGDEENDPDYDPKKDQNPAEC
B3: DDX3X (protein)
chain: SHVAVENALGLDQQFAGLDLNSSDNQSGGSTASKGRYIPPHLRNREATKGFYDKDSSGWSSSKDKDAYSSFGSRSDSRGKSSFFSDRGSGSRGRFDDRGRSDYDGIGSRGDRSGFGKFERGGNSRWCDKSDEDDWSKPLPPSERLEQELFSGGNTGINFEKYDDIPVEATGNNCPPHIESFSDVEMGEIIMGNIELTRYTRPTPVQKHAIPIIKEKRDLMACAQTGSGKTAAFLLPILSQIYSDGPGEALRAMKENGRYGRRKQYPISLVLAPTRELAVQIYEEARKFSYRSRVRPCVVYGGADIGQQIRDLERGCHLLVATPGRLVDMMERGKIGLDFCKYLVLDEADRMLDMGFEPQIRRIVEQDTMPPKGVRHTMMFSATFPKEIQMLARDFLDEYIFLAVGRVGSTSENITQKVVWVEESDKRSFLLDLLNATGKDSLTLVFVETKKGADSLEDFLYHEGYACTSIHGDRSQRDREEALHQFRSGKSPILVATAVAARGLDISNVKHVINFDLPSDIEEYVHRIGRTGRVGNLGLATSFFNERNINITKDLLDLLVEAKQEVPSWLENMAYEHHYKGSSRGRSKSSRFSGGFGARDYRQSSGASSSSFSSSRASSSRSGGGGHGSSRGFGGGGYGGFYNSDGYGGNYNSQGVDWWGN
B4: PLOD1 (protein)
chain: KGDAKPEDNLLVLTVATKETEGFRRFKRSAQFFNYKIQALGLGEDWNVEKGTSAGGGQKVRLLKKALEKHADKEDLVILFADSYDVLFASGPRELLKKFRQARSQVVFSAEELIYPDRRLETKYPVVSDGKRFLGSGGFIGYAPNLSKLVAEWEGQDSDSDQLFYTKIFLDPEKREQINITLDHRCRIFQNLDGALDEVVLKFEMGHVRARNLAYDTLPVLIHGNGPTKLQLNYLGNYIPRFWTFETGCTVCDEGLRSLKGIGDEALPTVLVGVFIEQPTPFVSLFFQRLLRLHYPQKHMRLFIHNHEQHHKAQVEEFLAQHGSEYQSVKLVGPEVRMANADARNMGADLCRQDRSCTYYFSVDADVALTEPNSLRLLIQQNKNVIAPLMTRHGRLWSNFWGALSADGYYARSEDYVDIVQGRRVGVWNVPYISNIYLIKGSALRGELQSSDLFHHSKLDPDMAFCANIRQQDVFMFLTNRHTLGHLLSLDSYRTTHLHNDLWEVFSNPEDWKEKYIHQNYTKALAGKLVETPCPDVYWFPIFTEVACDELVEEMEHFGQWSLGNNKDNRIQGGYENVPTIDIHMNQIGFEREWHKFLLEYIAPMTEKLYPGYYTRAQFDLAFVVRYKPDEQPSLMPHHDASTFTINIALNRVGVDYEGGGCRFLRYNCSIRAPRKGWTLMHPGRLTHYHEGLPTTRGTRYIAVSFVDP
B5: TTC13 (protein)
chain: MAPAGCCCCCCFWGGAVAAAGAARRVLLLLLLGVLSAGLRPGALATEHYSPLSLLKQELQHRQQQEAPAGGGGCSPQSGDWGDQYSAECGESSFLNFHDSDCEPKGSSPCDSLLSLNTEKILSQAKSIAEQKRFPFATDNDSTNEELAIAYVLIGSGLYDEAIRHFSTMLQILSPLGRINEAVNDLTKAIQLQPSARLYRHRGTLYFISEDYATAHEDFQQSLELNKNQPIAMLYKGLTFFHRGLLKEAIESFKEALKQKVDFIDAYKSLGQAYRELGNFEAATESFQKALLLNQNHVQTLQLRGMMLYHHGSLQEALKNFKRCLQLEPYNEVCQYMKGLSHVAMGQFYEGIKAQTKVMLNDPLPGQKASPEYLKVKYLREYSRYLHAHLDTPLTEYNIDVDLPGSFKDHWAKNLPFLIEDYEEQPGLQPHIKDVLHQNFESYKPEVQELICVADRLGSLMQYETPGFLPNKRIHRAMGLAALEVMQAVQRTWTNSKVRMNGKTRLMQWRDMFDIAVKWRRIADPDQPVLWLDQMPARSLSRGFNNHINLIRGQVINMRYLEYFEKILHFIKDRILVYHGANNPKGLLEVREALEKVHKVEDLLPIMKFNTKTKDGFTVNTKVPSLKDQGKEYDGFTITITGDKVGNILFSVETQTTEERTQLYHAEIDALYKDLTAKGKVLILSSEFGEADAVCNLILSLVYYFYNLMPLSRGSSVIAYSVIVGALMASGKEVAGKIPKGKLVDFEAMTAPGSEAFSKVAKSWMNLKSISPSYKTLPSVSETFPTLRSMIEVLNTDSSPRCLKKL
B6: CPSF7 (protein)
chain: MSEGVDLIDIYADEEFNQDPEFNNTDQIDLYDDVLTATSQPSDDRSSSTEPPPPVRQEPSPKPNNKTPAILYTYSGLRNRRAAVYVGSFSWWTTDQQLIQVIRSIGVYDVVELKFAENRANGQSKGYAEVVVASENSVHKLLELLPGKVLNGEKVDVRPATRQNLSQFEAQARKRECVRVPRGGIPPRAHSRDSSDSADGRATPSENLVPSSARVDKPPSVLPYFNRPPSALPLMGLPPPPIPPPPPLSSSFGVPPPPPGIHYQHLMPPPPRLPPHLAVPPPGAIPPALHLNPAFFPPPNATVGPPPDTYMKASAPYNHHGSRDSGPPPSTVSEAEFEDIMKRNRAISSSAISKAVSGASAGDYSDAIETLLTAIAVIKQSRVANDERCRVLISSLKDCLHGIEAKSYSVGASGSSSRKRHRSRERSPSRSRESSRRHRDLLHNEDRHDDYFQERNREHERHRDRERDRHH
B7: JUP (protein)
chain: MEVMNLMEQPIKVTEWQQTYTYDSGIHSGANTCVPSVSSKGIMEEDEACGRQYTLKKTTTYTQGVPPSQGDLEYQMSTTARAKRVREAMCPGVSGEDSSLLLATQVEGQATNLQRLAEPSQLLKSAIVHLINYQDDAELATRALPELTKLLNDEDPVVVTKAAMIVNQLSKKEASRRALMGSPQLVAAVVRTMQNTSDLDTARCTTSILHNLSHHREGLLAIFKSGGIPALVRMLSSPVESVLFYAITTLHNLLLYQEGAKMAVRLADGLQKMVPLLNKNNPKFLAITTDCLQLLAYGNQESKLIILANGGPQALVQIMRNYSYEKLLWTTSRVLKVLSVCPSNKPAIVEAGGMQALGKHLTSNSPRLVQNCLWTLRNLSDVATKQEGLESVLKILVNQLSVDDVNVLTCATGTLSNLTCNNSKNKTLVTQNSGVEALIHAILRAGDKDDITEPAVCALRHLTSRHPEAEMAQNSVRLNYGIPAIVKLLNQPNQWPLVKATIGLIRNLALCPANHAPLQEAAVIPRLVQLLVKAHQDAQRHVAAGTQQPYTDGVRMEEIVEGCTGALHILARDPMNRMEIFRLNTIPLFVQLLYSSVENIQRVAAGVLCELAQDKEAADAIDAEGASAPLMELLHSRNEGTATYAAAVLFRISEDKNPDYRKRVSVELTNSLFKHDPAAWEAAQSMIPINEPYGDDMDATYRPMYSSDVPLDPLEMHMDMDGDYPIDTYSDGLRPPYPTADHMLA

What follows are molecules tested against T1, B3GNT2 (assay: Co-IP of FLAG-tagged B3GNT2 followed by mass spectrometry). Conditions: Co-IP followed by mass spectrometry of B3GNT2; C-term tag, FLAG pull-down.
Type: cell-based
Parameters: C-term IgG / C-term flag: unit not given here
Outline: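 Co-purifying proteins were identified by fractionated nano-LC–MS/MS on an Orbitrap Elite, run data-dependent. Beforehand, lysates in 1% Triton X-100/HEPES buffer were incubated overnight at 4° C with anti-FLAG or […] and pulled down on Protein A/G magnetic beads for 4 h. Duplicate biological replicates.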

Molecule	C-term flag
B1	2
B2	4
B3	23
B4	4
B5	4
B6	9
B7	43

Same assay, conditions: Co-IP followed by mass spectrometry of B3GNT2; C-term tag, IgG pull-down

Molecule	C-term IgG
B1	0
B2	0
B3	15
B4	0
B5	0
B6	9
B7	36

Same assay, conditions: Co-IP followed by mass spectrometry of B3GNT2; N-term tag, FLAG pull-down

Molecule	N-term FLAG
B1	2
B2	0
B3	18
B4	0
B5	0
B6	12
B7	47

Same assay, conditions: Co-IP followed by mass spectrometry of B3GNT2; N-term tag, IgG pull-down

Molecule	N-term IgG
B1	0
B2	0
B3	19
B4	0
B5	0
B6	8
B7	39
